# Assay results as given in paper PMC8618960, “Functionalized Protein Nanotubes Based on the Bacteriophage vB_KleM-RaK2 Tail Sheath Protein” (Nanomaterials, 2021).
# Substrate: CC(=O)Nc1ccn([C@H]2C[C@H](O)[C@@H](CO)O2)c(=O)n1
# Test: purified protein
# Assay type: biochemical, Escherichia coli
# Conditions: 10 mM Tris-HCl pH 8.0, 22 °C, free enzyme
protein,measurement,value
"YqfB (free wild-type YqfB, amidohydrolase YqfB) (Escherichia coli K-12) (protein, free wild-type YqfB) MQPNDITFFQRFQDDILAGRKTITIRDESESHFKTGDVLRVGRFEDDGYFCTIEVTATSTVTLDTLTEKHAEQENMTLTELKKVIADIYPGQTQFYVIEFKCL",Km,(4.9 ± 0.04) × 10^−4 M
same,kcat,113 ± 1 s⁻¹
same,kcat/Km,230000 M⁻¹ s⁻¹
